From article PMC7998035, “Restoration of the healing microenvironment in diabetic wounds with matrix-binding IL-1 receptor antagonist” (Communications Biology, 2021) come the findings set out here.

The labels stand for the following.
B3: human fibrinogen (complex)
chain 1: ADSGEGDFLAEGGGVRGPRVVERHQSACKDSDWPFCSDEDWNYKCPSGCRMKGLIDEVNQDFTNRINKLKNSLFEYQKNNKDSHSLTTNIMEILRGDFSSANNRDNTYNRVSEDLRSRIEVLKRKVIEKVQHIQLLQKNVRAQLVDMKRLEVDIDIKIRSCRGSCSRALAREVDLKDYEDQQKQLEQVIAKDLLPSRDRQHLPLIKMKPVPDLVPGNFKSQLQKVPPEWKALTDMPQMRMELERPGGNEITRGGSTSYGTGSETESPRNPSSAGSWNSGSSGPGSTGNRNPGSSGTGGTATWKPGSSGPGSTGSWNSGSSGTGSTGNQNPGSPRPGSTGTWNPGSSERGSAGHWTSESSVSGSTGQWHSESGSFRPDSPGSGNARPNNPDWGTFEEVSGNVSPGTRREYHTEKLVTSKGDKELRTGKEKVTSGSTTTTRRSCSKTVTKTVIGPDGHKEVTKEVVTSEDGSDCPEAMDLGTLSGIGTLDGFRHRHPDEAAFFDTASTGKTFPGFFSPMLGEFVSETESRGSESGIFTNTKESSSHHPGIAEFPSRGKSSSYSKQFTSSTSYNRGDSTFESKSYKMADEAGSEADHEGTHSTKRGHAKSRPV
chain 2: QGVNDNEEGFFSARGHRPLDKKREEAPSLRPAPPPISGGGYRARPAKAAATQKKVERKAPDAGGCLHADPDLGVLCPTGCQLQEALLQQERPIRNSVDELNNNVEAVSQTSSSSFQYMYLLKDLWQKRQKQVKDNENVVNEYSSELEKHQLYIDETVNSNIPTNLRVLRSILENLRSKIQKLESDVSAQMEYCRTPCTVSCNIPVVSGKECEEIIRKGGETSEMYLIQPDSSVKPYRVYCDMNTENGGWTVIQNRQDGSVDFGRKWDPYKQGFGNVATNTDGKNYCGLPGEYWLGNDKISQLTRMGPTELLIEMEDWKGDKVKAHYGGFTVQNEANKYQISVNKYRGTAGNALMDGASQLMGENRTMTIHNGMFFSTYDRDNDGWLTSDPRKQCSKEDGGGWWYNRCHAANPNGRYYWGGQYTWDMAKHGTDDGVVWMNWKGSWYSMRKMSMKIRPFFPQQ
chain 3: YVATRDNCCILDERFGSYCPTTCGIADFLSTYQTKVDKDLQSLEDILHQVENKTSEVKQLIKAIQLTYNPDESSKPNMIDAATLKSRKMLEEIMKYEASILTHDSSIRYLQEIYNSNNQKIVNLKEKVAQLEAQCQEPCKDTVQIHDITGKDCQDIANKGAKQSGLYFIKPLKANQQFLVYCEIDGSGNGWTVFQKRLDGSVDFKKNWIQYKEGFGHLSPTGTTEFWLGNEKIHLISTQSAIPYALRVELEDWNGRTSTADYAMFKVGPEADKYRLTYAYFAGGDAGDAFDGFDFGDDPSDKFFTSHNGMQFSTWDNDNDKFEGNCAEQDGSGWWMNKCHAGHLNGVYYQGGTYSKASTPNGYDNGIIWATWKTRWYSMKKTTMKIIPFNRLTIGEGQQHHLGGAKQAGDV
modifications: Plasma-derived intact fibrinogen (Enzyme Research Laboratories), fibrinopeptides A and B retained; disulfide-linked (AαBβγ)2 hexamer, N-glycosylated, Ca2+-bound. By convention, the major circulating …

Common to all, as to test: ELISA; ECM protein coated on the plate (100 nM in PBS, 1 h, 37 °C), blocked with 1% BSA in PBS-T; IL-1Ra or PDGF-BB variants at 0 to 100 nM in PBS-T with 0.1% BSA, 1 h, room temperature; bound protein detected with biotinylated antibodies (DuoSet); specific binding fitted with a one site-specific binding model; means of 3 independent experiments
Common to all, as to details: both partners purified
For orientation: ELISA stands for enzyme-linked immunosorbent assay.

The target in one assay is T1, human vitronectin (human, UniProt P04004 20-478).
T1 construct: vitronectin, human; also called Vn; source: bought: Peprotech
T1 sequence (P04004 20-478): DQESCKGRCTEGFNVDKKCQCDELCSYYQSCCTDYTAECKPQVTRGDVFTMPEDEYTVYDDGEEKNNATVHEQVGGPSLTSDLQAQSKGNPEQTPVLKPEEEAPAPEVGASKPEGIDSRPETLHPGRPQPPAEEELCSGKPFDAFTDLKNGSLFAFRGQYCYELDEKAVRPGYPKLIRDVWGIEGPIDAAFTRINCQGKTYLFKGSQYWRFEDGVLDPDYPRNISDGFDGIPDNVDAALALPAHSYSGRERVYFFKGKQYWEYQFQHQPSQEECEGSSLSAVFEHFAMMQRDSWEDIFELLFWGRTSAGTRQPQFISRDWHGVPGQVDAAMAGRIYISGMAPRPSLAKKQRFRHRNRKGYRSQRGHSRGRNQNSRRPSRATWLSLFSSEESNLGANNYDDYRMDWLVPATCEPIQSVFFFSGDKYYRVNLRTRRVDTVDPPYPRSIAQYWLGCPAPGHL

The next assay has as its target T2, human tenascin C (human, UniProt P24821 23-2201).
T2 construct: tenascin C, human; also called TnC; source: bought: R&D Systems

The next assay addresses human plasma fibronectin (human).
The assay “human fibrinogen” concerns the target B3.
A further assay has as its target T3, IL-1Ra/PlGF123-141.
T3 construct: interleukin-1 receptor antagonist; source: E. coli BL21 (DE3), pET-22b, soluble fraction purified (chelating SFF(Ni) column)

Another assay deals with T4, PDGF-BB/PlGF123-141.
T4 construct: platelet-derived growth factor subunit B; also called engineered PDGF-BB
T4 sequence (P02671 36-866): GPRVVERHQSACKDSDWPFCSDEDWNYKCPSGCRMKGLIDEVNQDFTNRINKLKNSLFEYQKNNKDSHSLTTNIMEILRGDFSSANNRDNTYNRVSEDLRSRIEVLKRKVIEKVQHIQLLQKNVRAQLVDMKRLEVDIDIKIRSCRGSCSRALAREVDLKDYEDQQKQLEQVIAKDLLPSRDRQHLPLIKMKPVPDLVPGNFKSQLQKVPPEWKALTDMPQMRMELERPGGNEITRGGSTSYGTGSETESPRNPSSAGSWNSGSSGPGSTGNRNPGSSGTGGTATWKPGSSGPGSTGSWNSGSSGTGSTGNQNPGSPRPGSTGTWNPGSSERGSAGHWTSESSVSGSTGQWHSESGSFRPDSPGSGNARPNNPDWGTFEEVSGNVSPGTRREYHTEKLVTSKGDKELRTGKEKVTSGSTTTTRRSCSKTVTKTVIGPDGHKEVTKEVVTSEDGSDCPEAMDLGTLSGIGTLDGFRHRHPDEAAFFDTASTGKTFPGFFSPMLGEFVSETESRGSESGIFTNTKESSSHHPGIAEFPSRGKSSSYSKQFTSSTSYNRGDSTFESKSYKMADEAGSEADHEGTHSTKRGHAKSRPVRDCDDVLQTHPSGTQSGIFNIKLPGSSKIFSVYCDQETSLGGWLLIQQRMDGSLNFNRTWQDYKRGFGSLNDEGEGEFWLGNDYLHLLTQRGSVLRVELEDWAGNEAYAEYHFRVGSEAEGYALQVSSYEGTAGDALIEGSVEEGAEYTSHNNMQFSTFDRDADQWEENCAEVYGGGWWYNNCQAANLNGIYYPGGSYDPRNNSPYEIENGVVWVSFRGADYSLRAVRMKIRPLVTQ

Sequence of human fibrinogen (P02671 36-866): as above
T2 sequence (P24821 23-2201): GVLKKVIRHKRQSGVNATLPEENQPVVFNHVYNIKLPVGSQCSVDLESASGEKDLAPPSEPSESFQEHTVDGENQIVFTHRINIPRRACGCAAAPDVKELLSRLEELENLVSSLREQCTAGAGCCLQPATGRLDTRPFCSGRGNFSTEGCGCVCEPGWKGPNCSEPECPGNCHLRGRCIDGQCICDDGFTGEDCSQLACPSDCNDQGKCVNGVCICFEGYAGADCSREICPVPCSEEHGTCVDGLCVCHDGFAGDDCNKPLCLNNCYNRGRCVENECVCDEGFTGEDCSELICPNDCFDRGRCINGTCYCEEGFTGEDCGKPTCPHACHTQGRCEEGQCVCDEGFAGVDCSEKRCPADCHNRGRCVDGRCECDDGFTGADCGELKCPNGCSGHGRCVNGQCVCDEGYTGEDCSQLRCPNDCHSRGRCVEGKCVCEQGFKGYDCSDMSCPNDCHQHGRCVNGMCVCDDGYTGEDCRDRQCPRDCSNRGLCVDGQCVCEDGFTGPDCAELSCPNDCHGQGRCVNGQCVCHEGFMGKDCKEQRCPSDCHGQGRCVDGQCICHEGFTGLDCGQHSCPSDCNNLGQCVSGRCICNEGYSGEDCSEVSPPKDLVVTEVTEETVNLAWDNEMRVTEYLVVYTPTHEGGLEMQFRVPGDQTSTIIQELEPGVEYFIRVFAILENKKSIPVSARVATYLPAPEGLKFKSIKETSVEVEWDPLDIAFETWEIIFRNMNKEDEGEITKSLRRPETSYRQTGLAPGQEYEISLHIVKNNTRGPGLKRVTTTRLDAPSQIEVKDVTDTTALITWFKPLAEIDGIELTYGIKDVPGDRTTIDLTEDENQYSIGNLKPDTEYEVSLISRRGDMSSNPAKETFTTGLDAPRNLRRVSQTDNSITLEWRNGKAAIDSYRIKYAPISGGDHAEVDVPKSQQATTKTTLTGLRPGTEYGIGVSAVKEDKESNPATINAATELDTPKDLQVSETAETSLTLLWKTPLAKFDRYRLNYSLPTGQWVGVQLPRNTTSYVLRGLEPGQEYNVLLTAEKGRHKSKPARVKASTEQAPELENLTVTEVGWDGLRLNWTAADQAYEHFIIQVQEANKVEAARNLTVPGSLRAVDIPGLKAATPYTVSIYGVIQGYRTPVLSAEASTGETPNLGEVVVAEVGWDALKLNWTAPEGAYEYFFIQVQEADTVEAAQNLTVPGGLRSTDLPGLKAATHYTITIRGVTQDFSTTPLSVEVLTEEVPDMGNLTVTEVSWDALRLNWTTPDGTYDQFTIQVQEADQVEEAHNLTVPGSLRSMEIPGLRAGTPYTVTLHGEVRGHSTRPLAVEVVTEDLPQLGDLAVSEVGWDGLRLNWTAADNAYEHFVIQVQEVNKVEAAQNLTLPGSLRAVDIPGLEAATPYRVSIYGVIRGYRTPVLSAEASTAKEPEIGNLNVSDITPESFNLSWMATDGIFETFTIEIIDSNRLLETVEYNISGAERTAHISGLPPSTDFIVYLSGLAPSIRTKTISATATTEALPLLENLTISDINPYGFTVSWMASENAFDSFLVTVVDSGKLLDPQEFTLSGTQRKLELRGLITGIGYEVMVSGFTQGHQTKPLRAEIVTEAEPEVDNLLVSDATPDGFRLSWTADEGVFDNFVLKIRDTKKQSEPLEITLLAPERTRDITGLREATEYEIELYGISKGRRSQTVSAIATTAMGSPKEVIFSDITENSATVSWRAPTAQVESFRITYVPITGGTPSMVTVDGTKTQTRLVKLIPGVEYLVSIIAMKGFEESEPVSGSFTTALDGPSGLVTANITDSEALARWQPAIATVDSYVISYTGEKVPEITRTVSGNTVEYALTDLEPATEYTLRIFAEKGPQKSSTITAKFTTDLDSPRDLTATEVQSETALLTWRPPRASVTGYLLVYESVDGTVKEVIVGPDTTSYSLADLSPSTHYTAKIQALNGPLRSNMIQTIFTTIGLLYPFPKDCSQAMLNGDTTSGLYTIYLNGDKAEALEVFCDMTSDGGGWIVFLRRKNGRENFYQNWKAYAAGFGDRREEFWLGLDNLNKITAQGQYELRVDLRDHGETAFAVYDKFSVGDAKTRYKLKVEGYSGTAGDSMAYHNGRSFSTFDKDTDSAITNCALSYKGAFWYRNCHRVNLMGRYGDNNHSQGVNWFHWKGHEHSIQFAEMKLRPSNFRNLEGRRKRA
T3 sequence (P18510 whole entry): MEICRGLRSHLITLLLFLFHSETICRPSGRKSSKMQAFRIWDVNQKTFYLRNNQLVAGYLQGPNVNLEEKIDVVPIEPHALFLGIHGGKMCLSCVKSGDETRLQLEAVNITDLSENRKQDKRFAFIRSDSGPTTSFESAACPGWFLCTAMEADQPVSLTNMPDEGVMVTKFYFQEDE

B1: murine wild-type platelet-derived growth factor-BB (PDGF-BB) (ligand, mouse, UniProt P31240 82-190, looked up)
chain: SLGSLAAAEPAVIAECKTRTEVFQISRNLIDRTNANFLVWPPCVEVQRCSGCCNNRNVQCRASQVQMRPVQVRKIEIVRKKPIFKKATVTLEDHLACKCETIVTPRPVT
notes: platelet-derived growth factor subunit B, mouse; PDGF-BB occurs as a dimer; source: bought: Peprotech
A word on the Kd: it is the constant that tells how readily two partners part at equilibrium. Low values mean tighter binding, high ones weaker binding. With B1, the equilibrium dissociation constant (Kd) amounted to 32.1 nM with human vitronectin, 94.3 nM in the assay with human tenascin C, 67.5 nM in the assay with human plasma fibronectin and 206 nM with human fibrinogen.

B2: murine wild-type IL-1 receptor antagonist (IL-1Ra) (natural protein, mouse, UniProt P25085 27-178, looked up)
chain: RPSGKRPCKMQAFRIWDTNQKTFYLRNNQLIAGYLQGPNIKLEEKIDMVPIDLHSVFLGIHGGKLCLSCAKSGDDIKLQLEEVNITDLSKNKEEDKRFTFIRSEKGPTTSFESAACPGWFLCTTLEADRPVSLTNTPEEPLIVTKFYFQEDQ
notes: interleukin-1 receptor antagonist protein, mouse; also called interleukin-1 receptor antagonist
With B2, the dissociation constant Kd came to 73.2 nM in the assay with human vitronectin, 113 nM with human tenascin C, 129 nM with human plasma fibronectin and 663 nM in the assay with human fibrinogen.
Regarding B3, the Kd was 43.5 nM in the assay with IL-1Ra/PlGF123-141 and 16.7 nM in the assay with PDGF-BB/PlGF123-141.
